Data published in article PMC2839002 (Chromosoma, 2009).
Substitutions are numbered along the chain they refer to. In names and notes the source's numbering stands.

B1: GST-C214 C6D (domain or fragment, human, UniProt P38432 362-576, looked up)
chain: AGAAGWRRSGSNGGGQAPGASPSVSLPASLGRGWGREENLFSWKGAKGRGMRGRGRGRGHPVSCVVNRSTDNQRQQQLNDVVKNSSTIIQNPVETPKKDYSLLPLLAAAPQVGEKIAFKLLELTSSYSPDVSDYKEGRILSHNPETQQVDIEILSSLPALREPGKFDLVYHNENGAEVVEYAVTQESKITVFWKELIDPRLIIEDPDNEDDEEPA
B2: GST-C214 DDE (domain or fragment, human, UniProt P38432 362-576, looked up)
chain: B1 chain with D205S, D207S, E209T
B3: GST-C214 S489D + DDE (domain or fragment, human, UniProt P38432 362-576, looked up)
chain: B1 chain with S128D, D205S, D207S, E209T
B4: GST-coilin DDE (natural protein)
chain: MAASETVRLRLQFDYPPPATPHCTAFWLLVDLNRCRVVTDLISLIRQRFGFSSGAFLGLYLEGGLLPPAESARLVRDNDCLRVKLEERGVAENSVVISNGDINLSLRKAKKRAFQLEEGEETEPDCKYSKKHWKSRENNNNNEKVLDLEPKAVTDQTVSKKNKRKNKATCGTVGDDNEEAKRKSPKKKEKCEYKKKAKNPKSPKVQAVKDWANQRCSSPKGSARNSLVKAKRKGSVSVCSKESPSSSSESESCDESISDGPSKVTLEARNSSEKLPTELSKEEPSTKNTTADKLAIKLGFSLTPSKGKTSGTTSSSSDSSAESDDQCLMSSSTPECAAGFLKTVGLFAGRGRPGPGLSSQTAGAAGWRRSGSNGGGQAPGASPSVSLPASLGRGWGREENLFSWKGAKGRGMRGRGRGRGHPVSCVVNRSTDNQRQQQLNDVVKNSSTIIQNPVETPKKDYSLLPLLAAAPQVGEKIAFKLLELTSSYSPDVSDYKEGRILSHNPETQQVDIEILSSLPALREPGKFDLVYHNENGAEVVEYAVTQESKITVFWKELIDPRLIIESPSNTDDEEPA

Biological target: His-T7-SmB′ (UniProt P14678 1-240)
Test: pull-down

Binding result, binds:
B1, B2, B3, B4

Biological target: His-T7-SMN (UniProt Q16637 1-294)
Sequence (Q16637 whole entry): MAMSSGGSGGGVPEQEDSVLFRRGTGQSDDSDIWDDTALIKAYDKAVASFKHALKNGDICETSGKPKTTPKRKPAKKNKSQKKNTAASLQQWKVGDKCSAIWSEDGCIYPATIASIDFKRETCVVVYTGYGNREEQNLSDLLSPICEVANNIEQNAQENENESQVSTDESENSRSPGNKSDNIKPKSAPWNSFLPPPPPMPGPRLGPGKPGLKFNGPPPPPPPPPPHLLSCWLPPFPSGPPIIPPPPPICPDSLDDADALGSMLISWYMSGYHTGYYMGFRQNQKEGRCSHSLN
Test: pull-down

Binding result, binds:
B1, B2, B3
